Data set [1] relates to feruloyl-CoA:monolignol transferase (FMT). Description: FMT enzymatic assay (UPLC detection of product). The settings on record: for FMT activity with monolignol: monolignol as acyl acceptor, feruloyl-CoA as donor; for Product formed by FMT from CoA thioester: CoA thioester as acyl donor, coniferyl alcohol as acceptor. The format is biochemical, Angelica sinensis. Here is the method:
The FMT activity assay contained 100 mM MOPS pH 6.8, 1 mM dithiothreitol (DTT), 1 mM feruloyl-CoA, 1 mM coniferyl alcohol, 3.9 μg of purified FMT protein and deionized water to a volume of 50 μL. After a 30-minute incubation, 1 μL of 10 M hydrochloric acid was added to stop the reaction. Because the product synthesized in the reaction, coniferyl ferulate (CAFA), is insoluble, 50 μL of methanol was added to solubilize the CAFA. Prior to UPLC, protein and insoluble material were removed by filtering through an Amicon Ultracel 10K membrane filter (Millipore). The flow-through was analyzed using an Acquity Ultra Performance LC with an Acquity UPLC BEH C18 1.7 μm 2.1×100 mm column and the Acquity Console and Empower 2 Software, all from Waters Corporation. The solvents used in this method were solvent A, 0.1% trifluoroacetic acid, and solvent B, 100% acetonitrile. Samples were analyzed using the following gradient conditions, 13% B, for 5 minutes, 1 minute linear gradient to 42% B, held for 4 minutes, 1 minute linear gradient to 100% B, held for 1 minutes and 3 minutes at 13% B with a flow rate of 0.3 ml/minute. This method was then used to analyze a 10 μL injection of each assay reaction; standards for each of the substrates along with chemically synthesized CAFA were used to determine retention times for each compound. Purified recombinant enzyme was assayed for FMT activity using a reaction mixture containing 2 mM coniferyl alcohol, […], 100 mM HEPES pH 7.4 and 1 mM DTT. The second most abundant BAHD acyltransferase gene when incubated with Coniferyl alcohol and feruloyl-CoA produced a compound with the retention time of authentic coniferyl ferulate (CAFA) (FIG. 2). […] The addition of methanol to 50% after stopping the enzyme with acid was required to analyze the product by UPLC. The insolubility of the product made partial purification easy as the product was separated from the substrates by centrifugation.

Data set [2] is described as follows: Solubility observed in aqueous enzyme assay mixtures. The format is physicochemical. The following applies: aqueous assay mixture, in words. Here is the method:
The FMT activity assay contained 100 mM MOPS pH 6.8, 1 mM dithiothreitol (DTT), 1 mM feruloyl-CoA, 1 mM coniferyl alcohol, 3.9 μg of purified FMT protein and deionized water to a volume of 50 μL. After a 30-minute incubation, 1 μL of 10 M hydrochloric acid was added to stop the reaction. Because the product synthesized in the reaction, coniferyl ferulate (CAFA), is insoluble, 50 μL of methanol was added to solubilize the CAFA. Prior to UPLC, protein and insoluble material were removed by filtering through an Amicon Ultracel 10K membrane filter (Millipore). The flow-through was analyzed using an Acquity Ultra Performance LC with an Acquity UPLC BEH C18 1.7 μm 2.1×100 mm column and the Acquity Console and Empower 2 Software, all from Waters Corporation. The solvents used in this method were solvent A, 0.1% trifluoroacetic acid, and solvent B, 100% acetonitrile. Samples were analyzed using the following gradient conditions, 13% B, for 5 minutes, 1 minute linear gradient to 42% B, held for 4 minutes, 1 minute linear gradient to 100% B, held for 1 minutes and 3 minutes at 13% B with a flow rate of 0.3 ml/minute. This method was then used to analyze a 10 μL injection of each assay reaction; standards for each of the substrates along with chemically synthesized CAFA were used to determine retention times for each compound. […]

The next data set has as its target T1, OsPMT (Oryza sativa subsp. japonica, UniProt Q5JNT2).
T1 construct: 6xHis (N); made in house; host or cells: E. coli BL21
T1 sequence (Q5JNT2 1-439): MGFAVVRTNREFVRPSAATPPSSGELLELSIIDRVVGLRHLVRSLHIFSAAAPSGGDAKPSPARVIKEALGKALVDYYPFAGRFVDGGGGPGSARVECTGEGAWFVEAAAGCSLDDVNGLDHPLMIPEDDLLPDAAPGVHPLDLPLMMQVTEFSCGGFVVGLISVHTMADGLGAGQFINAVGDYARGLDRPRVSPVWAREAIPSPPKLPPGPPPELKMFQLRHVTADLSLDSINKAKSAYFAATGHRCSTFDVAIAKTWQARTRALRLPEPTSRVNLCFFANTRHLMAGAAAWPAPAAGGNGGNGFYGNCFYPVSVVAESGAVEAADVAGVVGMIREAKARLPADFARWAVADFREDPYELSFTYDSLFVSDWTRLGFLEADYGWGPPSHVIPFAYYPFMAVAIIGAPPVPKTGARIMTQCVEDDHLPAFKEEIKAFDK
Description: OsPMT kinetic assay (CoASH release detected with DTNB at A412). It is filed as biochemical. The following applies: for Substrate quality as acyl donor for OsPMT: tested acyl donors, in words. Here is the method:
(§1) Kinetics—Kinetic analyses were performed using an assay modified from Santoro et al. (Anal. Biochem. 354: 70-77 (2006)). The standard 100 μL reaction mixture contained 50 mM sodium phosphate pH 6, 2 mM 5,5′-dithiobis-(2-nitrobenzoic acid) (DTNB), 0.01-1 mM CoA thioester substrate, and 0.005-1.0 mM monolignol alcohol substrate and initiated by adding 100 ng of purified OsPMT protein in 1×BSA (NEB). The CoA thioester substrates included p-coumaroyl-CoA 2a and caffeoyl-CoA 2b, and the monolignol substrates included sinapyl alcohol 1S and p-coumaryl alcohol 1H. Enzyme activity was measured as an increase in CoASH, detected with DTNB at A412, which is released as a result of monolignol conjugate synthesis (id.). The absorbance was measured every three min. for 40 min on a Spectramax Plus microplate reader using Softmax Pro 5.3 (Molecular Devices). The reactions were stopped by adding hydrochloric acid to a concentration of 100 mM, and then solubilized by adding methanol to 50%. Aliquots of 10 μL from each assay were analyzed via UPLC to verify product production. A standard curve was created for each CoA thioester from triplicate assays of five concentrations from 50 nM to 1 mM of coenzyme-A. Each reaction contained the same buffer and DTNB concentrations as the kinetic assays, along with 0.5 mM of a CoA thioester (p-coumaroyl-CoA 2a, caffeoyl-CoA 2b, or feruloyl-CoA 2c). The equation derived from fitting this standard curve was used to calculate the quantity (moles) of product synthesized in the assay. Kinetic parameters, Vmax and Km, were calculated using a nonlinear regression by entering the reaction rate and substrate concentration into the program R64, version 2.12.0 (Team, R. D. C., R: A language and environment for statistical computing, R Foundation for Statistical Computing, Vienna, Austria (2010).

Substrate in data set [3]: OC/C=C/c1ccc(O)cc1
The data set is described as above. It is filed as biochemical, Oryza sativa. The following applies: other: varying substrate, pH 6.0. Here is the method: as §1

Substrate in data set [4]: CC(C)(COP(=O)(O)OP(=O)(O)OC[C@H]1O[C@@H](n2cnc3c(N)ncnc32)[C@H](O)[C@@H]1OP(=O)(O)O)[C@@H](O)C(=O)NCCC(=O)NCCSC(=O)/C=C/c1ccc(O)c(O)c1
Described as above. The format is biochemical, Oryza sativa. The settings on record: other: varying substrate, pH 6.0. As to the method: as §1

Substrate in data set [5]: CC(C)(COP(=O)(O)OP(=O)(O)OC[C@H]1O[C@@H](n2cnc3c(N)ncnc32)[C@H](O)[C@@H]1OP(=O)(O)O)[C@@H](O)C(=O)NCCC(=O)NCCSC(=O)/C=C/c1ccc(O)cc1
The description is as above. It is filed as biochemical, Oryza sativa. The following applies: other: varying substrate, pH 6.0. As to the method: as §1

Substrate in data set [6]: COc1cc(/C=C/CO)cc(OC)c1O
The data set is described as above. The format is biochemical, Oryza sativa. The following applies: other: varying substrate, pH 6.0. As to the method: as §1

Where [7] appears, read: saturating substrate caffeoyl-CoA 2b.
[8] abbreviates: saturating substrate p-coumaroyl-CoA 2a.
The mark [9] stands for this setting: saturating substrate p-coumaryl alcohol 1H.
[10] abbreviates: saturating substrate sinapyl alcohol 1S.

“Also recorded” adds a separate entry of the source.

For the molecule `COc1cc(/C=C/CO)ccc1O` [coniferyl alcohol 1G, coniferyl alcohol], in data set [1], the “FMT activity with monolignol” value is on record as “active”.
Consider `COc1cc(/C=C/COC(=O)/C=C/c2ccc(O)c(OC)c2)ccc1O` [coniferyl ferulate], for which the Solubility entry in data set [2] is listed as “mostly insoluble in water; also recorded: partially insoluble”.
Regarding `CC(C)(COP(=O)(O)OP(=O)(O)OC[C@H]1O[C@@H](n2cnc3c(N)ncnc32)[C@H](O)[C@@H]1OP(=O)(O)O)[C@@H](O)C(=O)NCCC(=O)NCCSC(=O)/C=C/c1ccc(O)cc1` [p-coumaroyl-CoA 2a, p-coumaroyl-CoA], in data set [1], the “Product formed by FMT from CoA thioester” value is given as “very little product”. The “Maximum reaction rate relative to caffeoyl-CoA 2b” value on OsPMT (acyl donor compared with caffeoyl-CoA 2b) is “at least 5 fold”. The “Substrate quality as acyl donor for OsPMT” value (“Substrate quality” below) on OsPMT is “good substrates”.
Take `CC(C)(COP(=O)(O)OP(=O)(O)OC[C@H]1O[C@@H](n2cnc3c(N)ncnc32)[C@H](O)[C@@H]1OP(=O)(O)O)[C@@H](O)C(=O)NCCC(=O)NCCSC(=O)/C=C/c1ccc(O)c(O)c1` [caffeoyl-CoA 2b, caffeoyl-CoA]: the “Product formed by FMT from CoA thioester” value in data set [1] is “very little product”. Also, the “Substrate quality” value at OsPMT is recorded as “good substrates”.
Consider `COc1cc(/C=C/CO)cc(OC)c1O` [sinapyl alcohol 1S, sinapyl alcohol], for which the “FMT activity with monolignol” value in data set [1] is “active”.
As to `OC/C=C/c1ccc(O)c(O)c1` [caffeyl alcohol 1C, caffeyl alcohol], the Solubility entry in data set [2] is given as “limited solubility”.
In the case of `COc1cc(/C=C/C(=O)SCCNC(=O)CCNC(=O)[C@H](O)C(C)(C)COP(=O)(O)OP(=O)(O)OC[C@H]2O[C@@H](n3cnc4c(N)ncnc43)[C@H](O)[C@@H]2OP(=O)(O)O)ccc1O` [feruloyl-CoA 2c, feruloyl-CoA], the “Product formed by FMT from CoA thioester” value in data set [1] was “substantial product”. On OsPMT, the “Substrate quality” value is given as “poor substrate”.
`OC/C=C/c1ccc(O)cc1` [p-coumaryl alcohol 1H, p-coumaryl alcohol]: in data set [1], the “FMT activity with monolignol” value is given as “active”. For the same molecule, the “Synthetic rate relative to sinapyl alcohol 1S” value on OsPMT (acyl acceptor compared with sinapyl alcohol 1S) came out at 6 times.

B1: OsPMT (Oryza sativa Japonica Group) (protein)
chain: T1 sequence (Q5JNT2 1-439)
notes: 6xHis (N); made in house; host or cells: E. coli BL21
The Km is the substrate concentration at which the rate is half of its maximum. Usually Vmax stands for the rate approached at saturating substrate. What is called kcat is the maximal rate divided by the concentration of active sites. Turning to B1, the Km came to 27 ± 6 µM in data set [3] (setting [7]); 141 ± 14 µM in data set [3] (setting [8]); 92 ± 11 µM in data set [4] (setting [9]); 75 ± 5 µM in data set [4] (setting [10]); 281 ± 62 µM in data set [5] (setting [9]); 105 ± 12 µM in data set [5] (setting [10]). Moreover, the Michaelis-Menten constant (Km) in data set [6] (setting [7]) amounted to 15 ± 2 µM; in data set [6] (setting [8]), 35 ± 5 µM. The Vmax in data set [3] (setting [7]) came out at 0.355 µmol/min/mg; in data set [3] (setting [8]) it was 3.25 µmol/min/mg; in data set [4] (setting [9]), 0.515 µmol/min/mg; in data set [4] (setting [10]), 0.45 µmol/min/mg; in data set [5] (setting [9]) it was 3.69 µmol/min/mg; in data set [5] (setting [10]) it was 0.75 µmol/min/mg. Also, the Vmax in data set [6] (setting [7]) was 0.486 µmol/min/mg; in data set [6] (setting [8]), 0.648 µmol/min/mg. Further, the kcat turned out to be 0.28 s⁻¹ in data set [3] (setting [7]); 2.58 s⁻¹ in data set [3] (setting [8]); 0.41 s⁻¹ in data set [4] (setting [9]); 0.36 s⁻¹ in data set [4] (setting [10]); 2.93 s⁻¹ in data set [5] (setting [9]); 0.6 s⁻¹ in data set [5] (setting [10]). Moreover, the values for the kcat in data set [6] (setting [7]) and in data set [6] (setting [8]) were 0.39 s⁻¹ and 0.51 s⁻¹, respectively.

The record behind these values is patent US10428342B2, “P-coumaroyl-CoA:monolignol transferase” (Wisconsin Alumni Research Foundation, priority 2011, dated 2019).
